Source: patent publication US20220380473A1, “ANTI-GAL3 ANTIBODIES AND USES THEREOF” (TrueBinding, Inc., priority 2019, published 2022)
Entries after “also recorded” stand apart in the source; their conditions may differ.

Key:
[1] = biological target: T1, interaction of Gal3 and TIM-3 (Homo sapiens, UniProt P17931); experiment: Gal3-TIM-3 interaction blockade ELISA (Example 13); type: binding; conditions: antibody at 20 ug/ml
T1 construct: full-length human Galectin-3 protein (Acro Biosystems, GA3-H5129); linker-spaced 6-histidine tag; purchased Acro Biosystems GA3-H5129 (Gal3); TM3-H5229 (TIM-3)
T1 sequence (P17931 2-250 limits assumed): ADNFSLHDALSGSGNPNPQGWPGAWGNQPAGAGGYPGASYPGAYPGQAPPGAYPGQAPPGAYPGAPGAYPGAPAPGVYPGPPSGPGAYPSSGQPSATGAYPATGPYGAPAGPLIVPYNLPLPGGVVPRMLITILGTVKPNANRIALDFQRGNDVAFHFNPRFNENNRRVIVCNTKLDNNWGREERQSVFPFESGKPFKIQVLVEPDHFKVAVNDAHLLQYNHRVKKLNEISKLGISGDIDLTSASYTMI
Protocol: To identify Gal3-targeted antibodies with the ability to block the interaction of Gal3 and TIM-3, purified Gal3 and TIM-3 proteins were incubated in the presence (or absence) of various Gal3-targeted or control antibodies, or without antibody, and protein interaction was evaluated by ELISA.
Human Gal3 protein (Acro Biosystems, GA3-H5129) was diluted in phosphate buffered saline (PBS) (Corning) to a concentration of 0.5 μg/ml and 100 ul of the diluted hGal3 was added to each well of a 96-well ELISA plate (Thermo Fisher, 44-2404-21). After incubating the plate at 4° C. overnight, the plate was washed three times with 300 μl of PBS with 0.05% TWEEN (VWR) (PBST) per well. The plate was then blocked for an hour with 200 μl of 2% bovine serum albumin (BSA) (Sigma) in PBST per well at room temperature with gentle rocking. […]
Afterwards, 50 ul of 1 ug/ml of human TIM-3 extracellular domain protein (Acro Biosystems, TM3-H5229) in 2% BSA in PBST was added to the wells. […] The plate was read using a plate reader (Molecular Devices) at absorbance of 450 nm. Percent blockade of Gal3-TIM-3 interaction was calculated as the fraction of signal obtained in the absence of antibody with the background signal subtracted.

Renca cells = experiment: Primary mouse Renca renal tumor model; type: in vivo; conditions: vs isotype control
Protocol: On the day of tumor implantation, mice were anesthetized by inhalation anesthetic (3 to 5% Isoflurane in medical grade air), Renca cells were washed and resuspended in PBS before subcutaneously injecting 2×10^5 cells in 0.1 mL, PBS using a syringe with a 25-ga needle. […] The animals were humanely sacrificed when tumor volume in the control group reached between 2000-2500 mm^3. Results were expressed as mean±SEM. The statistical analysis was performed in comparison with IgG2b control group using unpaired t test.

[2] = tested on: mouse unilateral ureteral obstruction (UUO) model of kidney fibrosis; experiment: Mouse UUO model of kidney fibrosis (Example 32); type: in vivo; conditions: administered one day after UUO surgery
Excerpt: To further evaluate the ability of GAL3-targeted antibodies with the ability to block TIM3-GAL3 assembly to impact fibrosis, we evaluated the impact of humanized IMT001-4 and IMT006-1 in the mouse unilateral ureteral obstruction (UUO) model of kidney fibrosis. Briefly, 8-week-old C57BL/6J male mice were divided into sham, UUO with HuIgG4−, and UUO with HuIMT001-4, HuIMT006-1, and UUO with metformin-treatment. HuIgG4, HuIMT001-4 and HuIMT006-1 were each administered by intraperitoneal route at 10 mg/kg Q2Dx3 whereas metformin (500 mg/kg/day) was administered to mice dissolved in drinking water. In some settings therapeutic antibodies or metformin was administered 1 day before UUO, whereas in other experiments therapeutic antibodies or metformin was administered 1 day after UUO. After 7 days of UUO surgery, mice were sacrificed, left kidney was harvested and fixed with 4% paraformaldehyde for immunohistochemistry (IHC) and blood was collected in Heparin-EDTA tubes for blood biochemistry analysis. Levels of plasma mouse TIM-1/KIM-1/HAVCR were measured using a commercial ELISA kit (Catalog #MKM100; R&D Systems, Minneapolis, Minn.) according to the protocol provided by the manufacturer. Levels of plasma mouse Lipocalin-2/NGAL were measured using a commercial ELISA kit (Catalog #DY1857; R&D Systems, Minneapolis, Minn.) according to the protocol provided by the manufacturer. 5 um sections of fixed kidney specimens were produced and processed for picosirius red staining as described for liver specimens above.
To evaluate the robustness of TIM3-GAL3 blocking antibodies in reducing kidney fibrosis, the ability of mIMT001 to inhibit fibrosis when administered one day after UUO surgery was evaluated. Following UUO surgery and treatment with isotype or control antibodies, kidney specimens were harvested and stained by IHC for Collagen 1a1 (Col1a1), a marker of kidney fibrosis.

human Gal3 protein = experiment: Epitope binding of IMT001, hGal3 peptide array dot blot and peptide ELISA; conditions: dot blot, 1 ug/ml antibody
Protocol: A peptide array containing 24 20 amino acid peptides overlapping by 10 amino acid and covering the whole human Gal3 protein sequence was synthesized (Genscript, Piscataway, N.J.) (FIG. 11A). 20 μg of each peptide was dot blotted onto a membrane. After blocking with 5% milk in PBS, the membrane was incubated with 1 ug/ml IMT001 antibody at 4C for overnight. After three times of washes, the membrane was incubated with 1:8000 diluted anti mIgG HRP antibody (Southern Biotech, Birmingham, Ala.) for one hour. After three times of washes, the membrane was incubated with Western ECL blotting substrates (Bio-Rad, Hercules, Calif.) and developed (FIG. 11B).
To further define binding epitope of IMT001 on the above peptide, 8 shorter peptides derived from it were synthesized (Genscript, Piscataway, N.J.) (FIG. 11C) and their binding by IMT001 was determined by ELISA (FIG. 11D). 96 well Elisa plate (Thermo Scientific) was coated with these peptides in PBS buffer and incubated at 4° C. for overnight. The plate was washed three times with TBST and then blocked with PBST buffer containing 2% BSA at room temperature for 1 h. IMT001 at 10 μg/mL was incubated in the coated Elisa plate at room temperature for 1 h. […] The optical density (OD) was read at 450 nm. The results were expressed as the average OD of duplicates±SD.

B1: IMT001: anti-Gal3 monoclonal antibody (Immutics); printed as mIMT001 (IMT001), murine (antibody, V domains shown)
VH: QIQLVQSGPELKKPGETVKISCKASGYTFTNYGMNWVKQAPGKGLKWMGWINTNTGEPTYVEEFKGRFAFSLETSASTAYLQINNLKNEDTATYFCAPYDNFFAYWGQGTLVTVSA
VL: DIVITQDELSNPVTSGESVSISCRSSKSLLYKDGKTYLNWFLQRPGQSPQLLIYLMSTHASGVSDRFSGSGSGTDFTLEISRVKAEDVGVYYCQQLVDYPLTFGAGTKLELK
- Gal3-TIM-3 binding, % of unblocked control (no antibody) [1]: 7%
- reduction of tumor growth (Renca cells; 10 mg/Kg i.p.): about 35%
- effect on tumor size (Renca cells): much reduced tumor size
- Col1a1 staining, image quantification [2]: 9.17 intensity units
- Col1a1 staining, qualitative [2]: reduced levels of Col1a1 staining
- overall reduction in Col1a1 [2]: 48%
- epitope on hGal3, 20 amino acid peptide array (human Gal3 protein): Peptides 5 and 6; also recorded: peptide_5
